Source: paper PMC11574045, “A cofactor-induced repressive type of transcription factor condensation can be induced by synthetic peptides to suppress tumorigenesis” (The EMBO Journal, 2024)

B1: ARL2BP (protein, UniProt Q9Y2Y0 1-163, looked up)
ADP-ribosylation factor-like …: MDALEGESFALSFSSASDAEFDAVVGYLEDIIMDDEFQLLQRNFMDKYYLEFEDTEENKLIYTPIFNEYISLVEKYIEEQLLQRIPEFNMAAFTTTLQHHKDEVAGDIFDMLLTFTDFLAFKEMFLDYRAEKEGRGLDLSSGLVVTSLCKSSSLPASQNNLRH
B2: IKZF1 (protein, UniProt Q13422 1-519, looked up)
DNA-binding protein Ikaros: MDADEGQDMSQVSGKESPPVSDTPDEGDEPMPIPEDLSTTSGGQQSSKSDRVVASNVKVETQSDEENGRACEMNGEECAEDLRMLDASGEKMNGSHRDQGSSALSGVGGIRLPNGKLKCDICGIICIGPNVLMVHKRSHTGERPFQCNQCGASFTQKGNLLRHIKLHSGEKPFKCHLCNYACRRRDALTGHLRTHSVGKPHKCGYCGRSYKQRSSLEEHKERCHNYLESMGLPGTLYPVIKEETNHSEMAEDLCKIGSERSLVLDRLASNVAKRKSSMPQKFLGDKGLSDTPYDSSASYEKENEMMKSHVMDQAINNAINYLGAESLRPLVQTPPGGSEVVPVISPMYQLHKPLAEGTPRSNHSAQDSAVENLLLLSKAKLVPSEREASPSNSCQDSTDTESNNEEQRSGLIYLTNHIAPHARNGLSLKEEHRAYDLLRAASENSQDALRVVSTSGEQMKVYKCEHCRVLFLDHVMYTIHMGCHGFRDPFECNMCGYHSQDRYEFSSHITRGEHRFHMS
B3: IKZF2 (protein, UniProt Q9UKS7 1-526, looked up)
Zinc finger protein Helios: METEAIDGYITCDNELSPEREHSNMAIDLTSSTPNGQHASPSHMTSTNSVKLEMQSDEECDRKPLSREDEIRGHDEGSSLEEPLIESSEVADNRKVQELQGEGGIRLPNGKLKCDVCGMVCIGPNVLMVHKRSHTGERPFHCNQCGASFTQKGNLLRHIKLHSGEKPFKCPFCSYACRRRDALTGHLRTHSVGKPHKCNYCGRSYKQRSSLEEHKERCHNYLQNVSMEAAGQVMSHHVPPMEDCKEQEPIMDNNISLVPFERPAVIEKLTGNMGKRKSSTPQKFVGEKLMRFSYPDIHFDMNLTYEKEAELMQSHMMDQAINNAITYLGAEALHPLMQHPPSTIAEVAPVISSAYSQVYHPNRIERPISRETADSHENNMDGPISLIRPKSRPQEREASPSNSCLDSTDSESSHDDHQSYQGHPALNPKRKQSPAYMKEDVKALDTTKAPKGSLKDIYKVFNGEGEQIRAFKCEHCRVLFLDHVMYTIHMGCHGYRDPLECNICGYRSQDRYEFSSHIVRGEHTFH
B4: ING1L (protein, UniProt Q9H160 1-280, looked up)
Inhibitor of growth protein 2: MLGQQQQQLYSSAALLTGERSRLLTCYVQDYLECVESLPHDMQRNVSVLRELDNKYQETLKEIDDVYEKYKKEDDLNQKKRLQQLLQRALINSQELGDEKIQIVTQMLELVENRARQMELHSQCFQDPAESERASDKAKMDSSQPERSSRRPRRQRTSESRDLCHMANGIEDCDDQPPKEKKSKSAKKKKRSKAKQEREASPVEFAIDPNEPTYCLCNQVSYGEMIGCDNEQCPIEWFHFSCVSLTYKPKGKWYCPKCRGDNEKTMDKSTEKTKKDRRSR
B5: IRF1 (protein, UniProt P10914 1-325, looked up)
Interferon regulatory factor 1: MPITRMRMRPWLEMQINSNQIPGLIWINKEEMIFQIPWKHAAKHGWDINKDACLFRSWAIHTGRYKAGEKEPDPKTWKANFRCAMNSLPDIEEVKDQSRNKGSSAVRVYRMLPPLTKNQRKERKSKSSRDAKSKAKRKSCGDSSPDTFSDGLSSSTLPDDHSSYTVPGYMQDLEVEQALTPALSPCAVSSTLPDWHIPVEVVPDSTSDLYNFQVSPMPSTSEATTDEDEEGKLPEDIMKLLEQSEWQPTNVDGKGYLLNEPGVQPTSVYGDFSCKEEPEIDSPGGDIGLSLQRVFTDLKNMDATWLDSLLTPVRLPSIQAIPCAP
B6: IRF2 (protein, UniProt P14316 1-349, looked up)
Interferon regulatory factor 2: MPVERMRMRPWLEEQINSNTIPGLKWLNKEKKIFQIPWMHAARHGWDVEKDAPLFRNWAIHTGKHQPGVDKPDPKTWKANFRCAMNSLPDIEEVKDKSIKKGNNAFRVYRMLPLSERPSKKGKKPKTEKEDKVKHIKQEPVESSLGLSNGVSDLSPEYAVLTSTIKNEVDSTVNIIVVGQSHLDSNIENQEIVTNPPDICQVVEVTTESDEQPVSMSELYPLQISPVSSYAESETTDSVPSDEESAEGRPHWRKRNIEGKQYLSNMGTRGSYLLPGMASFVTSNKPDLQVTIKEESNPVPYNSSWPPFQDLPLSSSMTPASSSSRPDRETRASVIKKTSDITQARVKSC
B7: IRF3 (protein, UniProt Q14653 1-427, looked up)
Interferon regulatory factor 3: MGTPKPRILPWLVSQLDLGQLEGVAWVNKSRTRFRIPWKHGLRQDAQQEDFGIFQAWAEATGAYVPGRDKPDLPTWKRNFRSALNRKEGLRLAEDRSKDPHDPHKIYEFVNSGVGDFSQPDTSPDTNGGGSTSDTQEDILDELLGNMVLAPLPDPGPPSLAVAPEPCPQPLRSPSLDNPTPFPNLGPSENPLKRLLVPGEEWEFEVTAFYRGRQVFQQTISCPEGLRLVGSEVGDRTLPGWPVTLPDPGMSLTDRGVMSYVRHVLSCLGGGLALWRAGQWLWAQRLGHCHTYWAVSEELLPNSGHGPDGEVPKDKEGGVFDLGPFIVDLITFTEGSGRSPRYALWFCVGESWPQDQPWTKRLVMVKVVPTCLRALVEMARVGGASSLENTVDLHISNSHPLSLTSDQYKAYLQDLVEGMDFQGPGES
B8: IRF5 (protein, UniProt Q13568 1-498, looked up)
Interferon regulatory factor 5: MNQSIPVAPTPPRRVRLKPWLVAQVNSCQYPGLQWVNGEKKLFCIPWRHATRHGPSQDGDNTIFKAWAKETGKYTEGVDEADPAKWKANLRCALNKSRDFRLIYDGPRDMPPQPYKIYEVCSNGPAPTDSQPPEDYSFGAGEEEEEEEELQRMLPSLSLTEDVKWPPTLQPPTLRPPTLQPPTLQPPVVLGPPAPDPSPLAPPPGNPAGFRELLSEVLEPGPLPASLPPAGEQLLPDLLISPHMLPLTDLEIKFQYRGRPPRALTISNPHGCRLFYSQLEATQEQVELFGPISLEQVRFPSPEDIPSDKQRFYTNQLLDVLDRGLILQLQGQDLYAIRLCQCKVFWSGPCASAHDSCPNPIQREVKTKLFSLEHFLNELILFQKGQTNTPPPFEIFFCFGEEWPDRKPREKKLITVQVVPVAARLLLEMFSGELSWSADSIRLQISNPDLKDRMVEQFKELHHIWQSQQRLQPVAQAPPGAGLGVGQGPWPMHPAGMQ
B9: IRF8 (protein, UniProt Q02556 1-426, looked up)
Interferon regulatory factor 8: MCDRNGGRRLRQWLIEQIDSSMYPGLIWENEEKSMFRIPWKHAGKQDYNQEVDASIFKAWAVFKGKFKEGDKAEPATWKTRLRCALNKSPDFEEVTDRSQLDISEPYKVYRIVPEEEQKCKLGVATAGCVNEVTEMECGRSEIDELIKEPSVDDYMGMIKRSPSPPEACRSQLLPDWWAQQPSTGVPLVTGYTTYDAHHSAFSQMVISFYYGGKLVGQATTTCPEGCRLSLSQPGLPGTKLYGPEGLELVRFPPADAIPSERQRQVTRKLFGHLERGVLLHSSRQGVFVKRLCQGRVFCSGNAVVCKGRPNKLERDEVVQVFDTSQFFRELQQFYNSQGRLPDGRVVLCFGEEFPDMAPLRSKLILVQIEQLYVRQLAEEAGKSCGAGSVMQAPEEPPPDQVFRMFPDICASHQRSFFRENQQITV
B10: IRF9 (protein, UniProt Q00978 1-393, looked up)
Interferon regulatory factor 9: MASGRARCTRKLRNWVVEQVESGQFPGVCWDDTAKTMFRIPWKHAGKQDFREDQDAAFFKAWAIFKGKYKEGDTGGPAVWKTRLRCALNKSSEFKEVPERGRMDVAEPYKVYQLLPPGIVSGQPGTQKVPSKRQHSSVSSERKEEEDAMQNCTLSPSVLQDSLNNEEEGASGGAVHSDIGSSSSSSSPEPQEVTDTTEAPFQGDQRSLEFLLPPEPDYSLLLTFIYNGRVVGEAQVQSLDCRLVAEPSGSESSMEQVLFPKPGPLEPTQRLLSQLERGILVASNPRGLFVQRLCPIPISWNAPQAPPGPGPHLLPSNECVELFRTAYFCRDLVRYFQGLGPPPKFQVTLNFWEESHGSSHTPQNLITVKMEQAFARYLLEQTPEQQAAILSLV
B11: JADE2 (protein, UniProt Q9NQC1 1-790, looked up)
E3 ubiquitin-protein ligase …: MEEKRRKYSISSDNSDTTDSHATSTSASRCSKLPSSTKSGWPRQNEKKPSEVFRTDLITAMKIPDSYQLSPDDYYILADPWRQEWEKGVQVPAGAEAIPEPVVRILPPLEGPPAQASPSSTMLGEGSQPDWPGGSRYDLDEIDAYWLELINSELKEMERPELDELTLERVLEELETLCHQNMARAIETQEGLGIEYDEDVVCDVCRSPEGEDGNEMVFCDKCNVCVHQACYGILKVPTGSWLCRTCALGVQPKCLLCPKRGGALKPTRSGTKWVHVSCALWIPEVSIGCPEKMEPITKISHIPASRWALSCSLCKECTGTCIQCSMPSCVTAFHVTCAFDHGLEMRTILADNDEVKFKSFCQEHSDGGPRNEPTSEPTEPSQAGEDLEKVTLRKQRLQQLEEDFYELVEPAEVAERLDLAEALVDFIYQYWKLKRKANANQPLLTPKTDEVDNLAQQEQDVLYRRLKLFTHLRQDLERVRNLCYMVTRRERTKHAICKLQEQIFHLQMKLIEQDLCRGLSTSFPIDGTFFNSWLAQSVQITAENMAMSEWPLNNGHREDPAPGLLSEELLQDEETLLSFMRDPSLRPGDPARKARGRTRLPAKKKPPPPPPQDGPGSRTTPDKAPKKTWGQDAGSGKGGQGPPTRKPPRRTSSHLPSSPAAGDCPILATPESPPPLAPETPDEAASVAADSDVQVPGPAASPKPLGRLRPPRESKVTRRLPGARPDAGMGPPSAVAERPKVSLHFDTETDGYFSDGEMSDSDVEAEDGGVQRGPREAGAEEVVRMGVLAS
B12: JDP2 (protein, UniProt P97875 1-163, looked up)
Jun dimerization protein 2: MMPGQIPDPSVTAGSLPGLGPLTGLPSSALTTEELKYADIRNIGAMIAPLHFLEVKLGKRPQPVKSELDEEEERRKRRREKNKVAAARCRNKKKERTEFLQRESERLELMNAELKTQIEELKLERQQLILMLNRHRPTCIVRTDSVRTPESEGNPLLEQLDKK
B13: JUNB (protein, UniProt P17275 1-347, looked up)
Transcription factor JunB: MCTKMEQPFYHDDSYTATGYGRAPGGLSLHDYKLLKPSLAVNLADPYRSLKAPGARGPGPEGGGGGSYFSGQGSDTGASLKLASSELERLIVPNSNGVITTTPTPPGQYFYPRGGGSGGGAGGAGGGVTEEQEGFADGFVKALDDLHKMNHVTPPNVSLGATGGPPAGPGGVYAGPEPPPVYTNLSSYSPASASSGGAGAAVGTGSSYPTTTISYLPHAPPFAGGHPAQLGLGRGASTFKEEPQTVPEARSRDATPPVSPINMEDQERIKVERKRLRNRLAATKCRKRKLERIARLEDKVKTLKAENAGLSSTAGLLREQVAQLKQKVMTHVSNGCQLLLGVKGHAF

Each molecule was assayed on HEK293FT cells transfected with TF library (assay: Screening of TF condensates based on fluorescent puncta). Conditions: Figure 1B numerical data; TF library screen, one value per transcriptional factor.
Assay type: cell-based
In short: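 Condensate formation is scored as Alexa 488-labelled puncta after Flag- or GAL4-tag immunostaining of fixed HEK293FT cells expressing individual TFs, with a 12 h glucose-free or glucose-containing culture preceding fixation.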

Molecule	Z score of condensed fraction
B1	1.651
B2	0.01528
B3	1.456
B4	-0.141
B5	-0.5727
B6	-0.3538
B7	1.843
B8	-0.5098
B9	2.123
B10	1.05
B11	-1.0906
B12	-1.182
B13	-0.9915
